US20100093980A1 (Biogen, published 2010)
Numbering of substitutions follows the chain as printed.

B1: Humanized HP1/2 Fab V24A_T32V (Fab, V domains shown)
VH: EVQLVQSGAEVKKPGATVKISCKASGFNIKDVYMHWVQQAPGKGLEWMGRIDPASGDTKYDPKFQVRVTITADTSTDTAYMELSSLRSEDTAVYYCATGMWVSTGYALDFWGQGTLVTVSS
VL: DIVMTQSPDSLAVSLGERATINCKASQSVTNDVAWYQQKPGQPPKLLIYYASNRYTGVPDRFSGSGSGTDFTLTISSLQAEDVAVYYCQQDYSSPYTFGQGTKVEIK
notes: Fab fragment; Constant parts are not specified
B2: Humanized HP1/2 Fab V24S_F27Y_T32V (Fab, V domains shown)
VH: B1 VH with A24S, F27Y
VL: B1 VL
notes: as for B1
B3: Humanized HP1/2 Fab F27Y_T32V_M96L (VH SEQ ID NO: 25) (Fab, V domains shown)
VH: B1 VH with A24V, F27K, M100L
VL: B1 VL
notes: as for B1
B4: HP1/2 Fab, straight CDR graft (VH CDR graft paired with VL CDR graft) (Fab, V domains shown)
VH: B1 VH with A24V, V32T
VL: B1 VL
notes: as for B1
B5: Humanized HP1/2 Fab V24F_T32V (Fab, V domains shown)
VH: B1 VH with A24F
VL: B1 VL
notes: as for B1
B6: Chimeric HP1/2 Fab (murine VH and VL domains) (Fab, V domains shown)
VH: EVQLQQSGAELVKPGASVKLSCTASGFNIKDTYMHWVKQRPEQGLEWIGRIDPASGDTKYDPKFQVKATITADTSSNTAWLQLSSLTSEDTAVYYCADGMWVSTGYALDFWGQGTTVTVSS
VL: SIVMTQTPKFLLVSAGDRVTITCKASQSVTNDVAWYQQKPGQSPKLLIYYASNRYTGVPDRFTGSGYGTDFTFTISTVQAEDLAVYFCQQDYSSPYTFGGGTKLEIK
notes: Fab fragment; Constant parts (CH1, CL) are not specified; detection was with goat anti-human IgG HRP conjugate; also called chimeric Fab

Target: T1, purified α4β1 VLA4 integrin (UniProt P13612 34-1032; P05556 21-798)
T1 construct: Purified VLA4 coated on the plate at 1 ug/ml; also called α4β1 integrin
T1 sequence (P13612 34-1032, form in doubt, chain 1 of 2): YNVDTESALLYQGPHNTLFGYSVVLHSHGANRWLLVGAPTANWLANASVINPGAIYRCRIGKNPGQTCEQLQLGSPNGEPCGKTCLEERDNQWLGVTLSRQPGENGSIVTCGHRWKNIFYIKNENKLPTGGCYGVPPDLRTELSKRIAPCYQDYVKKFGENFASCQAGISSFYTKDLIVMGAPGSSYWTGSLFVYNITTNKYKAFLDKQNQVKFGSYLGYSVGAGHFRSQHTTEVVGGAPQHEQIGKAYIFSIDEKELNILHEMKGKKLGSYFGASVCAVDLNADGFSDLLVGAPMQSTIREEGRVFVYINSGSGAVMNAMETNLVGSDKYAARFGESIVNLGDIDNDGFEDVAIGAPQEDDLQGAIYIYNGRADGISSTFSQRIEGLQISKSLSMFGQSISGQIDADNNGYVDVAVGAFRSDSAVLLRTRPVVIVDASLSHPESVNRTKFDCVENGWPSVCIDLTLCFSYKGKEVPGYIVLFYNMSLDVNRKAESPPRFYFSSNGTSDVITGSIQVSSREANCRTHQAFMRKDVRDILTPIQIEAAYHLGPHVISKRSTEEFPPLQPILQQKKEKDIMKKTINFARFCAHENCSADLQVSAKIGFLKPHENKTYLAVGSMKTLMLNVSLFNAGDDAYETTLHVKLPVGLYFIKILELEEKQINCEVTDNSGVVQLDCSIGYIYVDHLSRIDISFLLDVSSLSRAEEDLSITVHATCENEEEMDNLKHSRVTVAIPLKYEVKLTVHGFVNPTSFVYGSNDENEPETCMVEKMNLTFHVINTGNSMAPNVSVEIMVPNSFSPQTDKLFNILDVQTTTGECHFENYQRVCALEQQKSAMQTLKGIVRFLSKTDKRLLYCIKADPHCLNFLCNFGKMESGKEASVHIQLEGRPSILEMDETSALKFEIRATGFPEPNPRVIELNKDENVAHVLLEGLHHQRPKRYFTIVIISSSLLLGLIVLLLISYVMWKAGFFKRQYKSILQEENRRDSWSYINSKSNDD
T1 sequence (P05556 21-798, form in doubt, chain 2 of 2): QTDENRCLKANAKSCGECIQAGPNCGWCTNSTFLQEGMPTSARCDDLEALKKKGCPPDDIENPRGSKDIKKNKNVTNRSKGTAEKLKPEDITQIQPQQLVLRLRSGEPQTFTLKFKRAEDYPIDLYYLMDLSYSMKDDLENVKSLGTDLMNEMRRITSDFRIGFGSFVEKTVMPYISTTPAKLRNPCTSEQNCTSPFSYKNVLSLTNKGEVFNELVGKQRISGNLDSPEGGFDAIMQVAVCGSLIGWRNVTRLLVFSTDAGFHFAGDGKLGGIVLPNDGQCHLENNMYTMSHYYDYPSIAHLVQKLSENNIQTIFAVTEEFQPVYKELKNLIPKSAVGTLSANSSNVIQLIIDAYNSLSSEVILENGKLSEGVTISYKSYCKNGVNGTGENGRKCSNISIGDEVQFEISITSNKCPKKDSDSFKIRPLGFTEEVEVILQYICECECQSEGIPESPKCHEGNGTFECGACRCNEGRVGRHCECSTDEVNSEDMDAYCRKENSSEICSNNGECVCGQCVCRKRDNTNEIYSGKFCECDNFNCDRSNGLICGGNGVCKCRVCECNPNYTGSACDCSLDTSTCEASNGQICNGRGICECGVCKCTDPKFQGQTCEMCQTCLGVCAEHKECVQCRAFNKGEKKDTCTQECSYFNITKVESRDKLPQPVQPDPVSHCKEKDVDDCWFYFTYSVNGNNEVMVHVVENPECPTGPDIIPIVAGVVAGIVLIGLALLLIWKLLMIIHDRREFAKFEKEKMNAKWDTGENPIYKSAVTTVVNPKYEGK
Assay: ELISA, Fab on plate-coated purified VLA4, goat anti-human IgG HRP detection
Method: In this assay, 1 ug/ml of purified VLA4 (in 50 mM NaHCO₃ buffer (pH 9.2) containing 10 ug/ml BSA) was coated on a 96-well (100 ul/well) Corning Easy-wash plate and incubated overnight at 4° C. Following incubation, the plate was blocked with 150 ul/well of blocking buffer (50 mM Tris-HCl pH7.5, 150 mM NaCl and 2% Dry Milk) for 60 minutes at room temperature. The plated was then washed four times with TBS Washing buffer (50 mM Tris-HCl pH 7.5, 150 mM NaCl, 0.05% Tween-20). Dilutions of each HP1/2 Fab to be tested were prepared in binding buffer (TBS buffer containing 2% Dry Milk) and 100 ul of each dilution was added to the designated wells (100 ul of TBS assay buffer was used as blank control). The plate was then incubated for 60 minutes at room temperature, and then washed four times with TBS Washing buffer. The detection antibody (goat anti-human IgG HRP conjugate) was added at 100 ul/well and the plated was again incubated at room temperature for 60 minutes and washed four times with TBS Washing buffer beforeadding 100 ul/well HRP Substrate buffer and incubating another 30-60 minutes. To stop the reaction, 100 ul of 1 NH2SO4 was added to each well. The plate was read in a Molecular Devices ELISA plate reader at […], and the data was analyzed using Softmax software and EC50 values calculated by GraphPad Prism 4. The EC50 values observed for the test Fab fragments with VH and VL domains are tabulated in […]

EC50 | Binder
0.066 nM | B1
0.032 nM | B2
0.14 nM | B3
1.1 nM | B4
0.13 nM | B5
0.052 nM | B6
